This is an account of results in patent publication US11266715B2, “C3A receptor agonists for use against ischemic brain injury, stroke, traumatic brain injury, spinal cord injury and neurodegenerative disorders” (priority 2016, dated 2022).

Series [1] deals with mice subjected to neonatal HI injury. Description: Open field after neonatal HI injury. It counts as in vivo, mouse. Conditions: P50, 3 days treatment. As to the method:
In the short-term study (3 days of intranasal treatment), 3 groups of WT mice were used; animals subjected to neonatal HI injury and treated with either C3a (HI-C3a, n=18) or PBS (HI-PBS, n=18) and sham-operated animals treated with PBS (SHAM-PBS, n=19). These mice were tested in an open field and object recognition test (ORT) at P50-P54 and brains were collected at P55 (FIG. 8A).
Purified human C3a (Complement Technology Inc., Tyler, Tex., USA) was diluted in sterile phosphate buffered saline (PBS) to a concentration of 200 nM, and a total of 8 μl i.e. […] (4 μl/nostril; corresponding to ca. 2.56 μg/kg body weight) of peptide solution or PBS was given intranasally to awake and hand-restrained mice held in a supine position. Solutions were administered through a pipette tip, drop-wise in 2 μl-portions divided by 1 min intervals to allow for absorption. […] C3a or PBS was given every 24 hours for three (short-term study) or seven (long-term study) days starting 1 h after HI induction, i.e. between P9 and P11 or P9 and P15, respectively. Mice in each litter were randomly assigned to C3a or PBS treatment. Sham animals received PBS. […]
The activity of each animal on the first day of habituation to the object recognition test apparatus was recorded as an open field task to study locomotor and exploratory activities (Leke et al., 2012). […]

For series [2], the system named is WT mice subjected to photothrombotic stroke in the motor cortex. Description: Infarct volume after photothrombotic stroke, intranasal treatment. It counts as in vivo, mouse. Conditions: intranasal C3a daily days 7-21 post-stroke vs PBS; P=0.429. As to the method:
Cortical photothrombosis was induced using the Rose Bengal method (Lee et al., 2007; Watson et al., 1985) with some modifications. Anesthesia was induced with isoflurane (Forene®, Abbott) in air and oxygen (1:1) initially at 5% and reduced to 2.5% during the surgical procedure. Body temperature was monitored by a rectal probe and maintained at 37° C. using a homeothermic control unit (Harvard Apparatus). Anesthetized mice were placed in a stereotaxic frame, the skull was exposed through a midline scalp incision and Rose Bengal (200 μl, 10 mg/ml solution in sterile saline, Sigma) was injected intraperitoneally. […] Mice were provided with moist mashed food placed on the floor of the home cage and their weight was monitored daily for 7 days after surgery. […]
Purified human C3a peptide (Complement Technologies) was diluted in sterile phosphate buffered saline (PBS) to a concentration of 200 nM and a total of 20 μl (10 μl/nostril; corresponding to approximately 1.13 μg/kg body weight) of peptide solution or PBS was given intranasally to awake, hand-restrained mice held in a supine position. […] For the assessment of potential systemic anaphylactic response due to intranasal C3a inoculation, body temperature was monitored using a rectal temperature probe (Harvard Apparatus) inserted approximately 4 mm into the rectum of awake mice restrained by the scruff. […]

In series [3] the test system is serum carboxypeptidases. Conditions: systemically administered C3a; cited from earlier work.
Series [4] can be described thus: Body weight gain after neonatal HI and intranasal treatment. It counts as in vivo, mouse. The settings on record: across surgeries, treatments and genotypes. The source says: Unpaired t test was used to analyze the cue-induced fear conditioning experimental data. For the analysis of the total exploration time during the object recognition test and the open field experiment, one-way Analysis of Variance (ANOVA) was used, followed by a Tukey's multiple comparisons post-hoc test. Two-way ANOVA, with a Tukey's multiple comparisons post-hoc test, was used to analyze time spent exploring individual objects during the object recognition test, as well as the histomorphologic data and image analysis data. Two-way repeated measures ANOVA with a Tukey's multiple comparisons post-hoc test were used to analyze the body weight. Data are presented as mean±SEM. P values <0.05 were considered statistically significant.
To assess potential adverse effects of intranasal C3a administration on the overall animal health status and development, the inventors recorded animal weight gain across surgeries, treatments and different genotype conditions.

In the case of “C3a: Purified human C3a peptide (Complement Technologies), C3a receptor agonist, amino acid sequence SEQ ID NO: 1”, in series [1], the “anxiety-like behavior (centre distance and time, rearing, grooming)” value is given as “anxiety-like behavior was not induced”; the “general exploratory and locomotor activities (speed, activity, locomotion time, distance)” value is “did not affect general exploratory and locomotor activities”. Besides, the infarct volume result in series [2] is on record as “no effect on infarct volume”. Further, the stability in serum entry in series [3] is on record as “rapid inactivation by serum carboxypeptidases”. For the same substance, in series [4], the body weight gain entry is “neither the surgery nor the C3a treatment affected body weight gain”.
